Assays:
HLA-A*01:01 = assay: IEDB peptide-MHC binding, purified MHC/direct/fluorescence; filed as Kd, often an IC50 or EC50 that approximates it; ≥ and ≤ were set here for values at or beyond the usual limits of such assays; conditions: source organism: Escherichia coli O157:H7
HLA-A*02:01 [1] = assay: as above; conditions: source organism: Escherichia coli O157:H7
HLA-A*03:01 = assay: as above
HLA-A*11:01 = assay: as above; conditions: source organism: Escherichia coli O157:H7
HLA-A*26:01 [2] = assay: as above; conditions: source organism: Escherichia coli O157:H7
HLA-A*31:01 = assay: as above; conditions: source organism: Escherichia coli O157:H7
HLA-A*69:01 [3] = assay: as above; conditions: source organism: Escherichia coli O157:H7
HLA-B*07:02 = assay: as above; conditions: source organism: Escherichia coli O157:H7
HLA-B*15:01 = assay: as above
HLA-B*27:05 = assay: as above; conditions: source organism: Escherichia coli O157:H7
HLA-B*35:01 = assay: as above; conditions: source organism: Escherichia coli O157:H7
HLA-B*40:01 = assay: as above; conditions: source organism: Escherichia coli O157:H7
HLA-B*44:02 = assay: as above; conditions: source organism: Escherichia coli O157:H7
HLA-B*58:01 [4] = assay: as above; conditions: source organism: Escherichia coli O157:H7
HLA-A*24:02 = assay: IEDB peptide-MHC binding, purified MHC/competitive/fluorescence; ≥ and ≤ were set here for values at or beyond the usual limits of such assays; conditions: source organism: Zaire ebolavirus
HLA-A*02:03 = assay: IEDB peptide-MHC binding, purified MHC/direct/fluorescence; filed as Kd, often an IC50 or EC50 that approximates it; ≥ and ≤ were set here for values at or beyond the usual limits of such assays; conditions: source organism: Zaire ebolavirus
HLA-A*02:11 = assay: as above; conditions: source organism: Zaire ebolavirus
HLA-A*02:12 = assay: as above; conditions: source organism: Zaire ebolavirus
HLA-A*02:16 = assay: as above; conditions: source organism: Zaire ebolavirus
HLA-A*02:19 = assay: as above; conditions: source organism: Zaire ebolavirus
HLA-A*68:02 = assay: as above; conditions: source organism: Zaire ebolavirus
HLA-A*02:01 [5] = assay: IEDB peptide-MHC binding, purified MHC/competitive/fluorescence; filed as Kd, often an IC50 or EC50 that approximates it; ≥ and ≤ were set here for values at or beyond the usual limits of such assays; conditions: source organism: Zaire ebolavirus
HLA-A*26:01 [6] = assay: as above; conditions: source organism: Zaire ebolavirus
HLA-A*32:07 = assay: as above; conditions: source organism: Zaire ebolavirus
HLA-A*32:15 = assay: as above; conditions: source organism: Zaire ebolavirus
HLA-A*68:23 = assay: as above; conditions: source organism: Zaire ebolavirus
HLA-A*69:01 [7] = assay: as above; conditions: source organism: Zaire ebolavirus
HLA-B*15:42 = assay: as above; conditions: source organism: Zaire ebolavirus
HLA-B*18:01 = assay: as above; conditions: source organism: Zaire ebolavirus
HLA-B*27:03 = assay: as above; conditions: source organism: Zaire ebolavirus
HLA-B*39:01 = assay: as above; conditions: source organism: Zaire ebolavirus
HLA-B*45:06 = assay: as above; conditions: source organism: Zaire ebolavirus
HLA-B*46:01 = assay: as above; conditions: source organism: Zaire ebolavirus
HLA-B*58:01 [8] = assay: as above; conditions: source organism: Zaire ebolavirus
HLA-B*83:01 = assay: as above; conditions: source organism: Zaire ebolavirus
HLA-C*06:02 = assay: IEDB peptide-MHC binding, purified MHC/direct/fluorescence; filed as Kd, often an IC50 or EC50 that approximates it; ≥ and ≤ were set here for values at or beyond the usual limits of such assays; conditions: source organism: human gammaherpesvirus 4
[9] = source organism: Escherichia coli O157:H7
[10] = source organism: Zaire ebolavirus

## RPPRRGDKF
HLA-A*01:01
  Kd: ≥ 20 µM
HLA-A*02:01 [1]
  Kd: ≥ 20 µM
HLA-A*03:01; [9]
  Kd: ≥ 20 µM
HLA-A*11:01
  Kd: ≥ 20 µM
HLA-A*26:01 [2]
  Kd: ≥ 20 µM
HLA-A*31:01
  Kd: ≥ 20 µM
HLA-A*69:01 [3]
  Kd: ≥ 20 µM
HLA-B*07:02
  Kd: 0.223 µM
HLA-B*15:01; [9]
  Kd: ≥ 20 µM
HLA-B*27:05
  Kd: ≥ 20 µM
HLA-B*35:01
  Kd: 1.37 µM
HLA-B*40:01
  Kd: ≥ 20 µM
HLA-B*44:02
  Kd: ≥ 20 µM
HLA-B*58:01 [4]
  Kd: ≥ 20 µM

## TTIGEWAFW
HLA-A*24:02
  IC50: 0.113 µM
HLA-A*02:03
  Kd: ≥ 20 µM
HLA-A*02:11
  Kd: ≥ 20 µM
HLA-A*02:12
  Kd: ≥ 20 µM
HLA-A*02:16
  Kd: ≥ 20 µM
HLA-A*02:19
  Kd: ≥ 20 µM
HLA-A*03:01; [10]
  Kd: ≥ 20 µM
HLA-A*68:02
  Kd: ≥ 20 µM
HLA-B*15:01; [10]
  Kd: ≥ 20 µM
HLA-A*02:01 [5]
  Kd: ≥ 20 µM
HLA-A*26:01 [6]
  Kd: ≥ 20 µM
HLA-A*32:07
  Kd: 0.0033 µM
HLA-A*32:15
  Kd: 0.0269 µM
HLA-A*68:23
  Kd: 0.0016 µM
HLA-A*69:01 [7]
  Kd: ≥ 20 µM
HLA-B*15:42
  Kd: ≥ 5 µM
HLA-B*18:01
  Kd: ≥ 20 µM
HLA-B*27:03
  Kd: ≥ 20 µM
HLA-B*39:01
  Kd: ≥ 20 µM
HLA-B*45:06
  Kd: ≥ 5 µM
HLA-B*46:01
  Kd: ≥ 20 µM
HLA-B*58:01 [8]
  Kd: 0.0003 µM
HLA-B*83:01
  Kd: ≥ 5 µM

## YARYVLQKL
HLA-C*06:02
  Kd: 0.874 µM

Reference: the Immune Epitope Database (IEDB)
